The record followed here is publication PMC5007808, “Structure-oriented substrate specificity engineering of aldehyde-deformylating oxygenase towards aldehydes carbon chain length” (Biotechnology for Biofuels, 2016).

For orientation: Km means the concentration of substrate that gives half-maximal velocity. As usually defined, the kcat is the number of substrate molecules converted per active site and unit of time at saturation. The kcat/Km is the turnover number divided by the Michaelis constant.

Substrate in the data set “purified protein”: CCCCCC=O
Put plainly: purified protein. Conditions: NADH/PMS reducing system, catalase, 80 uM ferrous ammonium sulfate, 100 mM HEPES, 100 mM KCl, pH 7.2, room temperature.

Substrate in data set [1]: CCCCCCCC=O
Nature of the data set: GC headspace quantification of alkane product. It counts as biochemical, Synechococcus elongatus. Conditions: NADH/PMS reducing system, catalase, 80 uM ferrous ammonium sulfate, 100 mM HEPES, 100 mM KCl, pH 7.2, 37 °C.

Substrate in data set [2]: CCCCCCC=O
Nature of the data set: GC headspace quantification of alkane product. It counts as biochemical, Synechococcus elongatus. The settings on record: NADH/PMS reducing system, catalase, 80 uM ferrous ammonium sulfate, 100 mM HEPES, 100 mM KCl, pH 7.2, 37 °C.

Substrate in data set [3]: CCCCCCCCC=O
Nature of the data set: GC headspace quantification of alkane product. It counts as biochemical, Synechococcus elongatus. The settings on record: NADH/PMS reducing system, catalase, 80 uM ferrous ammonium sulfate, 100 mM HEPES, 100 mM KCl, pH 7.2, 37 °C.

B1: cADO-1593 (Synechococcus elongatus PCC 7942 = FACHB-805) (protein)
chain: MPQLEASLELDFQSESYKDAYSRINAIVIEGEQEAFDNYNRLAEMLPDQRDELHKLAKMEQRHMKGFMACGKNLSVTPDMGFAQKFFERLHENFKAAAAEGKVVTCLLIQSLIIECFAIAAYNIYIPVADAFARKITEGVVRDEYLHRNFGEEWLKANFDASKAELEEANRQNLPLVWLMLNEVADDARELGMERESLVEDFMIAYGEALENIGFTTREIMRMSAYGLAAV
notes: full length, codon-optimized gene in pET-28a, His-tag (nickel column), E. coli BL21(DE3); apo enzyme reconstituted with Fe(II)
As for B1, the Km in the data set “purified protein” is 930 ± 100 µM; in data set [1], 180 ± 30 µM; in data set [2], 590 ± 70 µM; in data set [3], 69 ± 8.7 µM. Besides, the kcat in “purified protein” was 0.03 s⁻¹; in data set [1] it was 0.0233 ± 0.001 s⁻¹; in data set [2], 0.0132 ± 0.0005 s⁻¹; in data set [3] it was 0.0102 ± 0.000333 s⁻¹. The kcat/Km came out at 31.7 M⁻¹ s⁻¹ in “purified protein”, 130 ± 5 M⁻¹ s⁻¹ in data set [1], 21.7 ± 1.67 M⁻¹ s⁻¹ in data set [2] and 150 ± 8.33 M⁻¹ s⁻¹ in data set [3].

B2: cADO-1593 (Synechococcus elongatus PCC 7942 = FACHB-805; A121F) (protein)
chain: MPQLEASLELDFQSESYKDAYSRINAIVIEGEQEAFDNYNRLAEMLPDQRDELHKLAKMEQRHMKGFMACGKNLSVTPDMGFAQKFFERLHENFKAAAAEGKVVTCLLIQSLIIECFAIAFYNIYIPVADAFARKITEGVVRDEYLHRNFGEEWLKANFDASKAELEEANRQNLPLVWLMLNEVADDARELGMERESLVEDFMIAYGEALENIGFTTREIMRMSAYGLAAV
notes: as for B1
On to B2, for which the Km is 960 ± 50 µM in “purified protein”, 180 ± 36 µM in data set [1], 560 ± 60 µM in data set [2] and 140 ± 22 µM in data set [3]. Also, the kcat worked out at 0.115 s⁻¹ in the data set “purified protein”, 0.0163 ± 0.001 s⁻¹ in data set [1], 0.025 ± 0.00167 s⁻¹ in data set [2] and 0.0128 ± 0.000667 s⁻¹ in data set [3]. Also, the kcat/Km was 120 M⁻¹ s⁻¹ in the data set “purified protein”, 90 ± 5 M⁻¹ s⁻¹ in data set [1], 45 ± 3.33 M⁻¹ s⁻¹ in data set [2] and 90 ± 5 M⁻¹ s⁻¹ in data set [3].
